Target: T1, ZmNF-YA8 (Zea mays, UniProt B6SPD7 2-301)
T1 sequence: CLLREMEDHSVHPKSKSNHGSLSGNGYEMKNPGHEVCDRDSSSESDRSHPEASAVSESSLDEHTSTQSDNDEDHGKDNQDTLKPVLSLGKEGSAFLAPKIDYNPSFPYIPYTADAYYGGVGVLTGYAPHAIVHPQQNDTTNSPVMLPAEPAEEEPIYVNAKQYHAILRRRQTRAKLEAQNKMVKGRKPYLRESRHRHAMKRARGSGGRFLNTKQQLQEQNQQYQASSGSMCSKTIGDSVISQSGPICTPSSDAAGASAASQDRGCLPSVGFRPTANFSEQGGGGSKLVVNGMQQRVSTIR
Experiment: EMSA; shifted band reduced by 20x unlabelled probe and eliminated at 40x; 20 min incubation; nondenaturing 4% polyacrylamide gel, 0.5x TBE; LightShift Chemiluminescent EMSA kit; binding buffer, salt, pH and temperature not stated
Settings: protein: recombinant; tags: His (pET28a); blunt

B1: ZmERF1B promoter P1 CCAAT-box EMSA probe (dsDNA)
DNA 1: GGCGCGCATTCGCCTCGCCTCCAATTCCCATCCATCACTAACTTG
DNA 2: CAAGTTAGTGATGGATGGGAATTGGAGGCGAGGCGAATGCGCGCC
B1: binds.
